We go through two molecules from PMC5592140 (Cellular signalling, 2017).

The target in assay [1] is T1, GST-MLK4β (Mixed Lineage Kinase 4β) (human, UniProt Q5TCX8-1 1-1036). As to the kind of experiment: pull-down.
Assay [2] concerns the target T1, GST-MLK4β (Mixed Lineage Kinase 4β). As to the kind of experiment: pull-down. The source holds these as a separate data set.

Like-named read-outs stand apart in the source and are kept apart here.

T1 sequence (Q5TCX8 whole entry): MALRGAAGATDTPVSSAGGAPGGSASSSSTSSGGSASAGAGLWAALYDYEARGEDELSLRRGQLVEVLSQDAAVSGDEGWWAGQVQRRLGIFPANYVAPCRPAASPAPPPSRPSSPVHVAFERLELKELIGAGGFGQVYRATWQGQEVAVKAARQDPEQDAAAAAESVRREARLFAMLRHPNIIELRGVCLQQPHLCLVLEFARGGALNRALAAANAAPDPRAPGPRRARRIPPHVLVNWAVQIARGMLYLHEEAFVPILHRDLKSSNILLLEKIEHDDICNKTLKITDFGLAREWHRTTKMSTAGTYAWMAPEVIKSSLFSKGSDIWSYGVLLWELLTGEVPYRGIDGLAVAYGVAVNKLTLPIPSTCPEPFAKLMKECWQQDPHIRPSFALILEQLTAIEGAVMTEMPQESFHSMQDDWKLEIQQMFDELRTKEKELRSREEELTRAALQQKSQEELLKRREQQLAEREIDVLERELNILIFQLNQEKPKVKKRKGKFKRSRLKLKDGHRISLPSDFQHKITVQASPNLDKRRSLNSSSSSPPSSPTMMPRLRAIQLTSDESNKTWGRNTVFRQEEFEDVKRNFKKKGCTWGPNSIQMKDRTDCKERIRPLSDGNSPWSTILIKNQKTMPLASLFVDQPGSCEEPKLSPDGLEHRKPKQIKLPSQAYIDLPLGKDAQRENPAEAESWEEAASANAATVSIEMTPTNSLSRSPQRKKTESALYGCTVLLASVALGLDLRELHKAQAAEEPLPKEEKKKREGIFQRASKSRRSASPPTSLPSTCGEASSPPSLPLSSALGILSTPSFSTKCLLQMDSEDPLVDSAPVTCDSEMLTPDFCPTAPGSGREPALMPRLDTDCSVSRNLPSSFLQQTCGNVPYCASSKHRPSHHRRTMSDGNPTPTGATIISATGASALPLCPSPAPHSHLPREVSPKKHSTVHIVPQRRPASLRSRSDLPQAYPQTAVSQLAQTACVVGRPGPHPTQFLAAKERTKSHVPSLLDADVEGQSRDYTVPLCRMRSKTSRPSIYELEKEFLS

B1: His-MLK3 (Mixed Lineage Kinase 3) (enzyme, human, UniProt Q16584 1-847, looked up)
chain: MEPLKSLFLKSPLGSWNGSGSGGGGGGGGGRPEGSPKAAGYANPVWTALFDYEPSGQDELALRKGDRVEVLSRDAAISGDEGWWAGQVGGQVGIFPSNYVSRGGGPPPCEVASFQELRLEEVIGIGGFGKVYRGSWRGELVAVKAARQDPDEDISVTAESVRQEARLFAMLAHPNIIALKAVCLEEPNLCLVMEYAAGGPLSRALAGRRVPPHVLVNWAVQIARGMHYLHCEALVPVIHRDLKSNNILLLQPIESDDMEHKTLKITDFGLAREWHKTTQMSAAGTYAWMAPEVIKASTFSKGSDVWSFGVLLWELLTGEVPYRGIDCLAVAYGVAVNKLTLPIPSTCPEPFAQLMADCWAQDPHRRPDFASILQQLEALEAQVLREMPRDSFHSMQEGWKREIQGLFDELRAKEKELLSREEELTRAAREQRSQAEQLRRREHLLAQWELEVFERELTLLLQQVDRERPHVRRRRGTFKRSKLRARDGGERISMPLDFKHRITVQASPGLDRRRNVFEVGPGDSPTFPRFRAIQLEPAEPGQAWGRQSPRRLEDSSNGERRACWAWGPSSPKPGEAQNGRRRSRMDEATWYLDSDDSSPLGSPSTPPALNGNPPRPSLEPEEPKRPVPAERGSSSGTPKLIQRALLRGTALLASLGLGRDLQPPGGPGRERGESPTTPPTPTPAPCPTEPPPSPLICFSLKTPDSPPTPAPLLLDLGIPVGQRSAKSPRREEEPRGGTVSPPPGTSRSAPGTPGTPRSPPLGLISRPRPSPLRSRIDPWSFVSAGPRPSPLPSPQPAPRRAPWTLFPDSDPFWDSPPANPFQGGPQDCRAQTKDMGAQAPWVPEAGP
On to B1, for which, in assay [1], the binding result is recorded as “binds”.

B2: FLAG-CHIP (carboxy-terminus of Hsc70-interacting protein) (enzyme, human, UniProt Q9UNE7 1-303, looked up)
chain: MKGKEEKEGGARLGAGGGSPEKSPSAQELKEQGNRLFVGRKYPEAAACYGRAITRNPLVAVYYTNRALCYLKMQQHEQALADCRRALELDGQSVKAHFFLGQCQLEMESYDEAIANLQRAYSLAKEQRLNFGDDIPSALRIAKKKRWNSIEERRIHQESELHSYLSRLIAAERERELEECQRNHEGDEDDSHVRAQQACIEAKHDKYMADMDELFSQVDEKRKKRDIPDYLCGKISFELMREPCITPSGITYDRKDIEEHLQRVGHFDPVTRSPLTQEQLIPNLAMKEVIDAFISENGWVEDY
In the case of B2, the binding result in assay [2] was “binds”.
